Assay results as given in article PMC9482650, “Quantitative fragmentomics allow affinity mapping of interactomes” (Nature Communications, 2022).

T1: APBA1_1, Q02410
T1 sequence (Q02410 651-752, limits assumed, looked up): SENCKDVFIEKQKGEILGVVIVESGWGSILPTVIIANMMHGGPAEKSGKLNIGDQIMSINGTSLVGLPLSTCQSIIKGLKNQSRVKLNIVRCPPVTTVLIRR

T2: APBA1_2, Q02410
T2 sequence (Q02410 742-832, limits assumed, looked up): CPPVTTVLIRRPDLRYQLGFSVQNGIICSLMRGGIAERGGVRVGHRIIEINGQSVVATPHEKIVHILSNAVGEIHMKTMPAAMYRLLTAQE

T3: DLG3_1, Q92796
T3 sequence (Q92796 125-227, limits assumed, looked up): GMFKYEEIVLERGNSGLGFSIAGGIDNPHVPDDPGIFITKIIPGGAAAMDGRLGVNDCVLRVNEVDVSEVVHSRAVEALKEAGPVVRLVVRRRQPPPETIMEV

T4: DLG3_3, Q92796
T4 sequence (Q92796 374-475, limits assumed, looked up): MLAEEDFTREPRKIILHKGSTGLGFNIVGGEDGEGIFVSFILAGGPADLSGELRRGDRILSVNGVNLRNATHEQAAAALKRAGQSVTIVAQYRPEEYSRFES

T5: GRIP1_3, Q9Y3R0
T5 sequence (Q9Y3R0 247-346, limits assumed, looked up): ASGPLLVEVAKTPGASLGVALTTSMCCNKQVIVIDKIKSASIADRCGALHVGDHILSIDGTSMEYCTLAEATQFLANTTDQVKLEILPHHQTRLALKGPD

T6: GRIP1_5, Q9Y3R0
T6 sequence (Q9Y3R0 568-668, limits assumed, looked up): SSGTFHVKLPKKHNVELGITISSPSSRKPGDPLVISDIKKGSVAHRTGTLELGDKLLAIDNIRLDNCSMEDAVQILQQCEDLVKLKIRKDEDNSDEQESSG

T7: LNX2_2, Q8N448
T7 sequence (Q8N448 334-432, limits assumed, looked up): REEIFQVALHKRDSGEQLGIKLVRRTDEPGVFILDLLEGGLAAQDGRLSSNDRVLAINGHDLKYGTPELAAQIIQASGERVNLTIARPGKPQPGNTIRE

T8: MPP2, Q14168
T8 sequence (Q14168 180-250, limits assumed, looked up): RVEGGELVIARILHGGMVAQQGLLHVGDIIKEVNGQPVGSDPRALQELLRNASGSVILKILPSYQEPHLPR

T9: NHERF3_1, Q5T2W1
T9 sequence (Q5T2W1 4-100, limits assumed, looked up): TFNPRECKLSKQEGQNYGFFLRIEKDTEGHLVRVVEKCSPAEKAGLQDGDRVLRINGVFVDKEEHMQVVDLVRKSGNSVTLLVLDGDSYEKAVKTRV

T10: RHPN1, Q8TCX5
T10 sequence (Q8TCX5 508-602, limits assumed, looked up): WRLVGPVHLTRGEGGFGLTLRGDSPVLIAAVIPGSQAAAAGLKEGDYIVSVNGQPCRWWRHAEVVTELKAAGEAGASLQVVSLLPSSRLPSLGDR

T11: SYNJ2BP, P57105
T11 sequence (P57105 8-110, limits assumed, looked up): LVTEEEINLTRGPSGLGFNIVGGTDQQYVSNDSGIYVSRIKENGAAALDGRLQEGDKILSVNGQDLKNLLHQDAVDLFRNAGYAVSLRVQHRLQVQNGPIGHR

T12: TIAM2, Q8IVF5
T12 sequence (Q8IVF5 885-986, limits assumed, looked up): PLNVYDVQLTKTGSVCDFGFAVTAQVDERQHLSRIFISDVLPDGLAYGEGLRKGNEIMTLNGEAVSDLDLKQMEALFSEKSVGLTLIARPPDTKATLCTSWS

B1: ASNSD1, Q9NWL6 (peptide)
chain: NLSIEKETKL
B2: TRPC5, Q9UL62 (peptide)
chain: GQEEQVTTRL

Biological target: AHNAK1, Q09666
Sequence (Q09666 4-100): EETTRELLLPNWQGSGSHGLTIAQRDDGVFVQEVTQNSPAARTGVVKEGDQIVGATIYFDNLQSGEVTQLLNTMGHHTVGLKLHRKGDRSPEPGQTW
Assay: holdup assay
Set-up: key: below the threshold = too weak to quantify, mostly under pKd 3.1 to 4
Conditions: plain residues with an end cap or a label only (N-terminal biotin on a linker: ado-ado)

Binder	pKd
B1	below the threshold
B2	below the threshold

Biological target: T1, APBA1_1, Q02410
Assay: holdup assay
Set-up: key: below the threshold = too weak to quantify, mostly under pKd 3.1 to 4
Conditions: plain residues with an end cap or a label only (N-terminal biotin on a linker: ado-ado)

Binder	pKd
B1	below the threshold
B2	below the threshold

Biological target: T2, APBA1_2, Q02410
Assay: holdup assay
Set-up: key: below the threshold = too weak to quantify, mostly under pKd 3.1 to 4
Conditions: plain residues with an end cap or a label only (N-terminal biotin on a linker: ado-ado)

Binder	pKd
B1	below the threshold
B2	3.58

Biological target: T3, DLG3_1, Q92796
Assay: holdup assay
Set-up: key: below the threshold = too weak to quantify, mostly under pKd 3.1 to 4
Conditions: plain residues with an end cap or a label only (N-terminal biotin on a linker: ado-ado)

Binder	pKd
B1	below the threshold
B2	below the threshold

Biological target: T4, DLG3_3, Q92796
Assay: holdup assay
Set-up: key: below the threshold = too weak to quantify, mostly under pKd 3.1 to 4
Conditions: plain residues with an end cap or a label only (N-terminal biotin on a linker: ado-ado)

Binder	pKd
B1	below the threshold
B2	below the threshold

Biological target: DLG4_1, P78352
Sequence (P78352 62-152): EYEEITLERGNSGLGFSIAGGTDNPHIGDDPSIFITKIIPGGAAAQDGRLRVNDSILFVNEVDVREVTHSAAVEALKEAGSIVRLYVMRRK
Assay: holdup assay
Set-up: key: below the threshold = too weak to quantify, mostly under pKd 3.1 to 4
Conditions: plain residues with an end cap or a label only (N-terminal biotin on a linker: ado-ado)

Binder	pKd
B1	below the threshold
B2	below the threshold

Biological target: FRMPD2_3, Q68DX3
Sequence (Q68DX3 1073-1166): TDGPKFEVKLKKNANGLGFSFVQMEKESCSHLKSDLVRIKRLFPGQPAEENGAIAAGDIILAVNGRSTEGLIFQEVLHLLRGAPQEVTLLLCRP
Assay: holdup assay
Set-up: key: below the threshold = too weak to quantify, mostly under pKd 3.1 to 4
Conditions: plain residues with an end cap or a label only (N-terminal biotin on a linker: ado-ado)

Binder	pKd
B1	below the threshold
B2	below the threshold

Biological target: GRID2IP_2, A4D2P6
Sequence (A4D2P6 272-370): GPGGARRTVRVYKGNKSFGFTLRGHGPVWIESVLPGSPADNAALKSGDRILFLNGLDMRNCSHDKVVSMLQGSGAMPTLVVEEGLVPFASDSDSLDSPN
Assay: holdup assay
Set-up: key: below the threshold = too weak to quantify, mostly under pKd 3.1 to 4
Conditions: plain residues with an end cap or a label only (N-terminal biotin on a linker: ado-ado)

Binder	pKd
B1	4.26
B2	4.44

Biological target: T5, GRIP1_3, Q9Y3R0
Assay: holdup assay
Set-up: key: below the threshold = too weak to quantify, mostly under pKd 3.1 to 4
Conditions: plain residues with an end cap or a label only (N-terminal biotin on a linker: ado-ado)

Binder	pKd
B1	below the threshold
B2	below the threshold

Biological target: T6, GRIP1_5, Q9Y3R0
Assay: holdup assay
Set-up: key: below the threshold = too weak to quantify, mostly under pKd 3.1 to 4
Conditions: plain residues with an end cap or a label only (N-terminal biotin on a linker: ado-ado)

Binder	pKd
B1	below the threshold
B2	below the threshold

Biological target: GRIP2_4, Q9C0E4
Sequence (Q9C0E4 446-548): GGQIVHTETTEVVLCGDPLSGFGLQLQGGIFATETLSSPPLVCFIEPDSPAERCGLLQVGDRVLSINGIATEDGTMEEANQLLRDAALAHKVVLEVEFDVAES
Assay: holdup assay
Set-up: key: below the threshold = too weak to quantify, mostly under pKd 3.1 to 4
Conditions: plain residues with an end cap or a label only (N-terminal biotin on a linker: ado-ado)

Binder	pKd
B1	below the threshold
B2	below the threshold

Biological target: GRIP2_5, Q9C0E4
Sequence (Q9C0E4 544-642): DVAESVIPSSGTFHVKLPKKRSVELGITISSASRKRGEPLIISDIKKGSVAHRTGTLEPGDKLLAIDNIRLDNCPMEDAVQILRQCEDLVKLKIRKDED
Assay: holdup assay
Set-up: key: below the threshold = too weak to quantify, mostly under pKd 3.1 to 4
Conditions: plain residues with an end cap or a label only (N-terminal biotin on a linker: ado-ado)

Binder	pKd
B1	below the threshold
B2	below the threshold

Biological target: HTRA1, Q92743
Sequence (Q92743 360-477): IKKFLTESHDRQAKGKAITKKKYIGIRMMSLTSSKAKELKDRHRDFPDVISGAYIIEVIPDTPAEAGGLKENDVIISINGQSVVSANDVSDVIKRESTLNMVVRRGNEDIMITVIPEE
Assay: holdup assay
Set-up: key: below the threshold = too weak to quantify, mostly under pKd 3.1 to 4
Conditions: plain residues with an end cap or a label only (N-terminal biotin on a linker: ado-ado)

Binder	pKd
B1	below the threshold
B2	3.92

Biological target: IL16_3, Q14005
Sequence (Q14005 1107-1207): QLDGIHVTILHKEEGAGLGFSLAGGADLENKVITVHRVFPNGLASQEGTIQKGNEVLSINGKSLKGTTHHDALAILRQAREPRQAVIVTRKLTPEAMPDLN
Assay: holdup assay
Set-up: key: below the threshold = too weak to quantify, mostly under pKd 3.1 to 4
Conditions: plain residues with an end cap or a label only (N-terminal biotin on a linker: ado-ado)

Binder	pKd
B1	below the threshold
B2	below the threshold

Biological target: Inadl_8, Q8NI35
Sequence (Q8NI35 1425-1530): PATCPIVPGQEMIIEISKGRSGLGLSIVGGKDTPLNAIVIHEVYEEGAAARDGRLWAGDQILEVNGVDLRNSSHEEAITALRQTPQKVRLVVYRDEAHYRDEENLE
Assay: holdup assay
Set-up: key: below the threshold = too weak to quantify, mostly under pKd 3.1 to 4
Conditions: plain residues with an end cap or a label only (N-terminal biotin on a linker: ado-ado)

Binder	pKd
B1	below the threshold
B2	below the threshold

Biological target: T7, LNX2_2, Q8N448
Assay: holdup assay
Set-up: key: below the threshold = too weak to quantify, mostly under pKd 3.1 to 4
Conditions: plain residues with an end cap or a label only (N-terminal biotin on a linker: ado-ado)

Binder	pKd
B1	below the threshold
B2	below the threshold

Biological target: MAGI1_1, Q96QZ7
Sequence (Q96QZ7 1-106): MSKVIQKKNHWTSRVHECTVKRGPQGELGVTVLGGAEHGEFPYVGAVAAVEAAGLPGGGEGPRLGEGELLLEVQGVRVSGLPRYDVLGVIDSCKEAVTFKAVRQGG
Assay: holdup assay
Set-up: key: below the threshold = too weak to quantify, mostly under pKd 3.1 to 4
Conditions: plain residues with an end cap or a label only (N-terminal biotin on a linker: ado-ado)

Binder	pKd
B1	below the threshold
B2	below the threshold

Biological target: T8, MPP2, Q14168
Assay: holdup assay
Set-up: key: below the threshold = too weak to quantify, mostly under pKd 3.1 to 4
Conditions: plain residues with an end cap or a label only (N-terminal biotin on a linker: ado-ado)

Binder	pKd
B1	below the threshold
B2	below the threshold

Biological target: T9, NHERF3_1, Q5T2W1
Assay: holdup assay
Set-up: key: below the threshold = too weak to quantify, mostly under pKd 3.1 to 4
Conditions: plain residues with an end cap or a label only (N-terminal biotin on a linker: ado-ado)

Binder	pKd
B1	6.04
B2	5.17

Biological target: NOS1, P29475
Sequence (P29475 9-101): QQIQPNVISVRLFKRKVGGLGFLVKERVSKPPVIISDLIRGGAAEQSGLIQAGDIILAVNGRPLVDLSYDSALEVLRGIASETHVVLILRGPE
Assay: holdup assay
Set-up: key: below the threshold = too weak to quantify, mostly under pKd 3.1 to 4
Conditions: plain residues with an end cap or a label only (N-terminal biotin on a linker: ado-ado)

Binder	pKd
B1	below the threshold
B2	3.57

Biological target: PDLIM1, O00151
Sequence (O00151 1-87): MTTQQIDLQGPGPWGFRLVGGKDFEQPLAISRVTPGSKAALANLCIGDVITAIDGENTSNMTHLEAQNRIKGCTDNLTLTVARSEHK
Assay: holdup assay
Set-up: key: below the threshold = too weak to quantify, mostly under pKd 3.1 to 4
Conditions: plain residues with an end cap or a label only (N-terminal biotin on a linker: ado-ado)

Binder	pKd
B1	below the threshold
B2	below the threshold

Biological target: PICK1, Q9NRD5
Sequence (Q9NRD5 17-115): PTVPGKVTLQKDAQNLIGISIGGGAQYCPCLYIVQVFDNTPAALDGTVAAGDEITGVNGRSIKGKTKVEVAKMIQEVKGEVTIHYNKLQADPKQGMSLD
Assay: holdup assay
Set-up: key: below the threshold = too weak to quantify, mostly under pKd 3.1 to 4
Conditions: plain residues with an end cap or a label only (N-terminal biotin on a linker: ado-ado)

Binder	pKd
B1	3.95
B2	4.06

Biological target: T10, RHPN1, Q8TCX5
Assay: holdup assay
Set-up: key: below the threshold = too weak to quantify, mostly under pKd 3.1 to 4
Conditions: plain residues with an end cap or a label only (N-terminal biotin on a linker: ado-ado)

Binder	pKd
B1	4.76
B2	4.85

Biological target: SNX27, Q96L92
Assay: holdup assay
Set-up: key: below the threshold = too weak to quantify, mostly under pKd 3.1 to 4
Conditions: plain residues with an end cap or a label only (N-terminal biotin on a linker: ado-ado)

Binder	pKd
B1	5.65
B2	5.47

Biological target: T11, SYNJ2BP, P57105
Assay: holdup assay
Set-up: key: below the threshold = too weak to quantify, mostly under pKd 3.1 to 4
Conditions: plain residues with an end cap or a label only (N-terminal biotin on a linker: ado-ado)

Binder	pKd
B1	3.85
B2	below the threshold

Biological target: T12, TIAM2, Q8IVF5
Assay: holdup assay
Set-up: key: below the threshold = too weak to quantify, mostly under pKd 3.1 to 4
Conditions: plain residues with an end cap or a label only (N-terminal biotin on a linker: ado-ado)

Binder	pKd
B1	3.94
B2	3.65
